System: clots formed from pooled rabbit plasma with rabbit blood cells
Assay: In vitro sonothrombolysis (STBL) of clots with MBs, CPDL, tPA and/or 450 nm StNPs, pulsed 1 MHz ultrasound
Conditions: pulsed 1 MHz ultrasound 15 min, in bovine calf serum, 0.5 mL/min; control ultrasound alone; 3 μm MBs, 0.1 mg/ml tPA, 0.06% w/V CPDL nanoemulsion
Method: FIG. 1 depicts a graph showing the potentiation of sonothrombolysis (STBL) efficacy by microbubbles (MBs) and/or a nanoemulsion of cyclopentadecanolide with or without tissue plasminogen activator (tPA). […] STBL was performed with fibrin-rich clots (see Example 2) using pulsed, 1 MHz ultrasound for 15 min. The MBs, tPA, StNPs etc. were suspended in bovine calf serum and introduced at a flow rate of 0.5 mL/min. STBL efficacy is reported as % clot lysis. Abbreviations: US=ultrasound; MBs=microbubbles; CPDL=cyclopentadecanolide; StNPs=starch nanoparticles; tPA=tissue plasminogen activator.
The clots used in these experiments were formed by mixing pooled rabbit plasma with rabbit blood cells (final volume equal to 2 mL; the volume of whole rabbit blood from which the cells were obtained), incubating this mixture for 24 h at 37° C. and then curing the formed clots for 24 h at 5° C. […] The StNPs were diluted to have an Optical Density reading at 530 nm (OD530) of 1.0. […] STBL efficacy was measured as the percent of the initial clot mass that was lost from the clot during the 15 min treatment time.

B1: tissue plasminogen activator (protein, UniProt P00750 36-562, looked up)
Tissue-type plasminogen …: SYQVICRDEKTQMIYQQHQSWLRPVLRSNRVEYCWCNSGRAQCHSVPVKSCSEPRCFNGGTCQQALYFSDFVCQCPEGFAGKCCEIDTRATCYEDQGISYRGTWSTAESGAECTNWNSSALAQKPYSGRRPDAIRLGLGNHNYCRNPDRDSKPWCYVFKAGKYSSEFCSTPACSEGNSDCYFGNGSAYRGTHSLTESGASCLPWNSMILIGKVYTAQNPSAQALGLGKHNYCRNPDGDAKPWCHVLKNRRLTWEYCDVPSCSTCGLRQYSQPQFRIKGGLFADIASHPWQAAIFAKHRRSPGERFLCGGILISSCWILSAAHCFQERFPPHHLTVILGRTYRVVPGEEEQKFEVEKYIVHKEFDDDTYDNDIALLQLKSDSSRCAQESSVVRTVCLPPADLQLPDWTECELSGYGKHEALSPFYSERLKEAHVRLYPSSRCTSQHLLNRTVTDNMLCAGDTRSGGPQANLHDACQGDSGGPLVCLNDGRMTLVGIISWGLGCGQKDVPGVYTKVTNYLDWIRDNMRP
notes: thrombolytic agent, used at 0.1 mg/ml
STBL efficacy (FIG. 1), in words: improved STBL efficacy
